B1: Bcl-2-binding component 3 (Mus musculus), Q99ML1 (parent)
chain: MARARQEGSSPEPVEGLARDSPRPFPLGRLMPSAVSCSLCEPGLPAAPAAPALLPAAYLCAPTAPPAVTAALGGPRWPGGHRSRPRGPRPDGPQPSLSPAQQHLESPVPSAPEALAGGPTQAAPGVRVEEEEWAREIGAQLRRMADDLNAQYERRRQEEQHRHRPSPWRVMYNLFMGLLPLPRDPGAPEMEPN
B2: Phorbol-12-myristate-13-acetate-induced protein 1 (Mus musculus), Q9JM54 (parent)
chain: MPGRKARRNAPVNPTRAELPPEFAAQLRKIGDKVYCTWSAPDITVVLAQMPGKSQKSRMRSPSPTRVPADLKDECAQLRRIGDKVNLRQKLLNLISKLFNLVT

Variants of: B1
Conditions: with mcl1_mouse Mcl1, P97287
mcl1_mouse Mcl1, P97287, sequence (P97287 whole entry): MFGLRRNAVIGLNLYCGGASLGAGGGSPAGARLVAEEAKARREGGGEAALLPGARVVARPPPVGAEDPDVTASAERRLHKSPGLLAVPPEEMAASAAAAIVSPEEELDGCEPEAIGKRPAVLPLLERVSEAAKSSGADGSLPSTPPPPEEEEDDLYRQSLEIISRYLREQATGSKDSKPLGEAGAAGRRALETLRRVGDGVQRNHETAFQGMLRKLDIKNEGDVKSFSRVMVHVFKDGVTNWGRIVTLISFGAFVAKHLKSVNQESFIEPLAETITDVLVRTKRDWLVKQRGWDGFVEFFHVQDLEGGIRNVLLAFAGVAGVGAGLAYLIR

Variant | effect of a mutation on the interaction
M144I | increasing interaction

Variants of: B2
Conditions: with mcl1_mouse Mcl1, P97287

Variant | effect of a mutation on the interaction
E74F | increasing interaction strength
